From PMC2118782 come the findings set out here.

Like-named read-outs stand apart in the source and are kept apart here.

For assay [1], the target named is Ld class I major histocompatibility complex molecule (30-5-7+ Ld) (mouse). The assay is described as follows: co-IP.
For assay [2] the target is unchanged. Nature of the assay: co-IP. This is another data set of the same source.

Ld class I major histocompatibility complex molecule (30-5-7+ Ld) (mouse), sequence (P01897 25-362, one chain of several): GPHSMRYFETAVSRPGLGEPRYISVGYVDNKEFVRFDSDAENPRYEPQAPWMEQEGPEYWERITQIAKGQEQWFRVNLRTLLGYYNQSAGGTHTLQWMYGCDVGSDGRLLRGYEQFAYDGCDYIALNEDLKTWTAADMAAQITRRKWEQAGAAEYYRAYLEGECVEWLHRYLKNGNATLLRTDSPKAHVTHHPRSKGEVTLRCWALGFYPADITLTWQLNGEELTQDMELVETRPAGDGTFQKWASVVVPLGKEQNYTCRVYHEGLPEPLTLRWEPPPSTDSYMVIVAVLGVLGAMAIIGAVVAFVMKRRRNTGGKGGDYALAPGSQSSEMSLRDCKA

Turning to MCMV pp89 168-176 peptide, the values for the percent precipitable counts in assay [1] and in assay [2] were 98% and 80%, respectively. Also, in assay [2], the pellet cpm (bound peptide) came to 7630 cpm.
